Ends that are not written are not given here.
T1: Purified recombinant protein (full length) of human phosphatidylserine decarboxylase (PSD), with N-terminal His tag, expressed in E. coli (Acris-OriGene) (human)
T1 sequence (chain, fluorescently labelled in the MST assay with the peptides): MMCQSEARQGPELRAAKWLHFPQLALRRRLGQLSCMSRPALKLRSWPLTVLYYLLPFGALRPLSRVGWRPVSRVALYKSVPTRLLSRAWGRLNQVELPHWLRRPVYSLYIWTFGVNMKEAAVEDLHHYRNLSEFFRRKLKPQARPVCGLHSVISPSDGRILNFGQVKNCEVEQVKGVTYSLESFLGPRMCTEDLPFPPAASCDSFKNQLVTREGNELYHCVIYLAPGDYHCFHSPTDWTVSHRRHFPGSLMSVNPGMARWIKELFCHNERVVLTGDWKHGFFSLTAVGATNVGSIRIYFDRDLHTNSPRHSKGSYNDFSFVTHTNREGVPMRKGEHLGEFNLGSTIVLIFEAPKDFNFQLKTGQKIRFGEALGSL


Tests used:
[1] = biological target: T1, Purified recombinant protein (full length) of human phosphatidylserine decarboxylase (PSD), with N-terminal His tag, expressed in E. coli (Acris-OriGene) (human); test: cell-based or functional assay
[2] = biological target: T1, Purified recombinant protein (full length) of human phosphatidylserine decarboxylase (PSD), with N-terminal His tag, expressed in E. coli (Acris-OriGene) (human); test: MST, fluorescently labelled purified PSD 0.25 µM, peptide titrated 1-10 µM
[3] = biological target: T1, Purified recombinant protein (full length) of human phosphatidylserine decarboxylase (PSD), with N-terminal His tag, expressed in E. coli (Acris-OriGene) (human); test: microscale thermophoresis; fluorescently labelled PSD (0.25 µM) with peptide (1-10 µM)

inhibition of PSD activity (DSB-3 method) [1] [µM] | EC50 (read off the curve) [2] [nM] | Kd [3] [nM] | Binder
1 | 4000 | 3000 | ALLTSGTSDPRARVTYGTPSLWARL (not fully specified) [peptide 1C11, derived from HTRA2]
1 | 3000 | 3000 | ALSTSSPIPSVPQSQAQPQTGSGAS [peptide 2F3, derived from MAML2]
